In the nanobody polyreactivity screen of Harvey et al. (2022):

Assay: yeast display, Sf9 membrane polyspecificity reagent, FACS + sequencing; frameworks hold sequencing errors
Summary of the method: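 A nanobody's polyreactivity label depends on the gate it was sorted from. Yeast display cells were stained with 10% biotinylated, detergent-solubilized Sf9 membrane reagent for 1 hour at 4 °C, enriched on streptavidin microbeads and sorted by FACS. The low and high (top ~1%) gates were set on anti-HA fluorescence for expression and streptavidin fluorescence for reagent binding.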

Sequence | polyreactivity (PSR sort gate)
QVQLVETGGGLVQAGGSLRLSCAASGSTFVYNAMGWYRQAPGKERELVASITRSGSSTYYADSVKGRFTISRDNAKNTVYLQMNSLKPEDTAVYYCAVRYSVLSNYRYYYWGQGTQVTVSS | low polyreactivity
QVQLVESGGGLVQAGGSLRLSCAASGFICPIYPMGWYRQAPGKERELVAGISWRGGSTYYADSVKGRFTISRDKATYTVYLQMNSLKPEDTAVYYCAVVVQGYSTYYYWGQGTQVTVSS | high polyreactivity
QVQLVESGGGLVQAGGSLRLSCAASGSTSGQNAKGWYRQPPGNERELVAAISSSAGSTYADSVKGRFTISRDNAKNTVYLQMNSLKPEDTAVYYCNVPYYYTRGSYGYWGQGTQVTVSS | low polyreactivity
QVQLVESGGGLVHAGGSLRLSCAASGFTFYRNTMGWYRQAPGKERELVAAISTRAGSTYYADSVKGRFTISRDNAKNTVYLQMNSLKPEDTAVYYCAVLTYRGRFEYWGQGTQVTVSS | high polyreactivity
QVQLVESAAGLVQAGGSLRLSCAASGSILKLNAMGWYRQAPGKERELVAAISRGGRTYYADSVKGRFTISRDNAKNTVYLQMHSLKPEDTAVYYCAADACLLGPGDFNYWGQGTQVTVSS | low polyreactivity
QVQLVESGGGLVQAGGSLRLSCAASGSIFDGNAMGWYRQAPGKERELVASITYRGGSTYYADSVKGRFTISRDNAKNTVYLQMNSLQPEDTAVYYCAAVFKYRYDYWGQGTQVTVSS | low polyreactivity
QVQLVESGGRLVQAGGSLRLSCDASGSIFAYYAMGGYRQAPGKERELVAAMCSGGGTYYADSVKGRFTISRDKAKTTVYLQMNSLKPEDTAVYYCAADGLWHIFYPGTGVDYWGQGTQVTVSS | low polyreactivity
QVQLVESGGGLVQAGGSLRLSCAASGSIFVGYAMGWYRQAPGKERELVAAISWSGDSTYYADSVKGRFTISRDNAKNTVYLQMNSLTPEDTAVYYCAVDYAEIGPRPEVEYDYWGQGTQVTVSS | low polyreactivity
QVQLVESGGGLVQAGGSLRLSCAASGRIFDRYAMGWYRQAPGKERELVASITSSGGNTYYADSVKGRFTISRDNAKNTVYFQMNSLKPEDTAVYYCAKPQRVWQYGNYYYWGQGTQVTVSS | high polyreactivity
QVQLVESGGGLVQAGGSLRLSCAASGLTFTVYGMGWSRQAPGKEREFVATISRRGGRTYYADSVKGRFTISRDNAKNTVYVLLNSLKPEDTAVYYCNADIGTYVRSGGGDYWGQGTQVTVSS | low polyreactivity
QVQLVESGGGLVQAGGSLRLSCAASGSIFFSNAMGWYRQAPGKERELVAVITYSGGGTYYADSVKGRFTISRDNAKNTVYLQMNSLKPEDTAVYYCNTDLGPDGISWHWYAYDYWGQGTQVTVSS | low polyreactivity
QVQLEESGGGLVQAGGSLRLSCAASGFIFGKNDMGWYRQAPWKERELVAAITIGGSTNYADSVKGRFTISRDNAKNTVYLQMNSLKPEDTAVYYCNADSYHYGTSLYNYWGQGTQVTVSS | low polyreactivity
QVQLVESGGGLVQAGGSLRLSCAASGLTFKSYAMGWYRQAPGKERELVAAISWRGGRTYYADSVKGRFTISRDNAKNTVYLQMNSLKPEDTAVYYSNARSQQWWLSRYNYWGQGTQVTVSS | high polyreactivity
QVQLVESGGGLVQAVGSLRLICDASGRIFYGYAMGWYRQAPGTERELVAANTYIGGTYYADSVKGRFTISRDNAKNTVDFLMNSVKPEDTSVYYWATEPFYNYGYFTYPYWYDYWGQGSQVTVSS | low polyreactivity
QVQLVESGGGLVQAGGSLRLSSAASGSIFVLNAMGWYRQAPGKERELVAAITNVGSTYYADSVKGRFTISRDNAKNTVYLQMNSLKPEDTAVYYCNADPGEVLVGYDYWGQGTQVTVSS | low polyreactivity
QVQLVESGRGLVQAGGSLRLSCAPSGSTFGKYAMGWFRQAPGKERELVAASSSGTSTNYADSVKGRFTISRDNAKNTVYLQMNSRKAEDTSVYYCAADSLKRYDDWGQGTQVTVSS | low polyreactivity

Sequence | polyreactivity (PSR sort gate)
QVQLVESRGGLVQAGGSLRLSCAASGFTFVYYTMGWYRQAPGKERELVAAINWSGGSTYYADSVKGRFTISRDNAKNTVYLQMNSLKPEDTAVYYCAADTSYYPYEYWGQGTQVTVSS | high polyreactivity
QVQLVESGGGLVQAGGSLRLSCAASGITFRYYAMGWYRQAPGKERELVATINWSGGTTHYADSVKGRFTISRENAKNTVYLQMNSLKPEDTAVYYCAADPWQYKLGWPPFTYDYWGQGTQVTVSS | high polyreactivity
QVQLVESGGGLVQAGGSLRLSCAASGSIFTSNDMGWYRQAPGKERELVAAITNSGGSTYYADSVKGRFTISGDNAKNTVYLQMNSLKPEDTEVYYCAAEISILPFVTPDTIYGYWGQGTQVTVSS | low polyreactivity
QVQLVESGGGLVQAGGSLRLSCAASGIIFKTYAKGWYRPAPAKERELVAAISRRGGSTYYADSVNGRFTISRDNAKNTVYLQMNSLKPEDTAVYYCAAEYGYVIAYTTRAFYYWGHGTQVTVSS | high polyreactivity
QVQLVESGGGLVQAGGSLRLSCAASGRISYLYTMGWYRQAPGKERELVAAIRWRDGSTYYADSVKGRFTISRDNAKNTVYLQMNSLKPEDTAVYYCASTPVGFYWYDYWGQGTQVTVSS | low polyreactivity
QVQLVESGGGLVQAGGSLRLSCAASGSIFGVNAMGWYRQAPGKERELVAGITTGGSTKYADSVKGRFTISRDNAKNTVYLQMNSLKPEDTAVYYCAATGKWYHFYHYGYWGQGTQVTVSS | low polyreactivity
QVQLVESGGGLVQAGGSLRLSCAASGLTFPTNAMGRYRQAHGKESQFVAAITSRGGTTYYADSVTGRFPISRDNAKNTVYLQMNSLKPEDTAVYYCAALSVTIDQSYRYGYWGQGTQVTVSS | low polyreactivity
QVQIVESGGGLVQAGGSLRLSWAASGSNLDFNAMGWYRQAHGKERELVAAINNSGGSTYYADSLKGRFTISRDTAKKTVYLQMNRLKPEDTAVYYCARYAFWKRAYWGQGTQETVSS | low polyreactivity
QVQLVESGGGLVQAGGSLRLSCAASGSTFAVYGMGWYRQAPGKERELVAAISSSGARTYYADSVKGRFTISRDNAKNTVYLQMNSLKPEDTAVYYCAALPHRQAGYDYWGLGTQVTVSS | high polyreactivity
QVQLVESGGGLVQAGGSLRLSCAASGFTFTYYAMGWYRQAPGKERELVAAITRRGGRTYYADSVKGRFTISRDNAKNTVYLQMNSLKPEDTAVYYCNADEYGGSTGRKGRYNYWGQGTQVTVSS | low polyreactivity
QVQLVESGGGLVQAGGSLRLSCAASGSTFINYAMGWYRQAPGKERELVAAYADSVKGRFTISRDNAKNTVYLQMNSLKPEDTAVYYCAARYVYPHQWTPYIRPYDYWGQGTQVTVSS | low polyreactivity
QVQLVESGGGLVQAGGSLRLSCAASGSIFHGYAMGWYRTAPGKERELVAAISYTGGRTYYADSVKGRFTISRDNAMNTVYLQMNSLKPEDTAVYYCAAHDYWGQGTQVTVSS | high polyreactivity
QVQLVESGAGLVQAGGSLRLSCAASGRTFPYYVMGWYRQAPGKERELVAAIRRTGGSTYYADSVKGRFTISRDNAKNTVYLQMNSLKPEDTAVYYCTQRHSILYEGGYDYWGQGTQVTVSS | low polyreactivity
QVQLQESGGGLEHAGGSLRLSCAASGNIFLSIFMGWYRQAPGKEREFVAGIGSGTNTNYADSVKGRFTISRDNANNTVYLQMNSLKPEDTAVYYCNAVWGSHYPTYAKLSRDYWGQGTQVTVSS | high polyreactivity
QVQLAESGGGLVQAGGSLRLSCAASGSNFSPNAMGWYRQAPGKERELVAAITAGARTNYADSVKGRFTISRDNSKNTFYLQMNSLKPEDTAVYYCNAESYYDYNYWGQGTQVTVSS | low polyreactivity
QVQLVESGGGLDQAGGSLRLSCAPSGFIFIRNAMGWYRQAPGKDRELVAAISSGGRTYYADSVKGRFTISRDNAKNTVYLQMNSLKPEDTAVDYCATRPHRPRGQSVGQYDDWGQGTQVTVSS | high polyreactivity
